Results published in patent US11448657B2, “Methods and kits for assessing Heparanase procoagulant activity, compositions comprising Heparanase, and methods for the treatment of coagulation-related disorders” (RAMBAM MED-TECH, priority 2011, dated 2022).

Assays:
[1] = test system: normal human plasma; experiment: Factor Xa generation in pooled normal human plasma; type: biochemical; conditions: factor VIIa and factor X added, 15 min 37° C.
Procedure: Increasing doses of heparanase were added to pooled normal human plasma (25 μL plasma). After 15 min at 37° C., chromogenic substrate for the detection of factor Xa was added (1 mM). The mean value±SD of three independent experiments is shown. Note a 7- to 8-fold increase in coagulation activity in the presence of heparanase.
Next, the procoagulant effect of heparanase in human plasma was tested. Using an ELISA method [Shafat I. et al., Biochem Biophys Res. Commun. […] When heparanase, factor VIIa and factor X were incubated (15 min, 37° C.) with pooled normal human plasma from five healthy donors, followed by the addition of a chromogenic substrate for factor Xa, a 7- to 8-fold increase in factor Xa levels was obtained com-pared to levels in plasma incubated in the absence of heparanase (FIG. 2). In this condition the coagulation was mainly dependent on the concentration of endogenous TF, as described previously [Suefuji H. et al., Am Heart J. 1997, 134(2 Pt. 1):253-259; Kim H K et al., Cardiology. 2000, 93(1-2):31-36]. The effect of heparanase was also tested in whole blood using thromboelastography. Citrated blood samples from healthy donors to which factor VIIa (0.04 μM) and factor X (1.4 μM) were added were recalcified according to the manufacturer's recommendations (final concentration of CaCl2) 8 mM) and arranged in the disposable cups of the thromboelastogram. […]

[2] = test system: ICR mice; experiment: LPS-induced sepsis in ICR mice; type: in vivo
Procedure: FIG. 19: IL-6 as a marker of sepsis severity Heparanase, LPS and LPS+heparanase were injected intra-peritoneal to ICR mice. Four hours later the blood was drawn and IL-6 level was measured by ELISA.
Heparanase, LPS and LPS+heparanase were injected intra-peritoneal to ICR mice. Four hours later the blood was drawn and thrombin-antithrombin (TAT) (20A) and D-dimer (20B) levels were evaluated by ELISA. Levels of TAT and D-dimer were reduced in the LPS+heparanase group compared to LPS alone in accordance with a severe activation of the coagulation system (p<0.05).
Methods: ICR mice, heparanase knock-out mice and heparanase over-expression mice were studied. Sepsis was induced by intra-peritoneal injection of lipopolysaccharides (LPS). Inhibitory peptides to TF/heparanase complex (number 11, 22, 5, 6, 7, 12, and 21 [SEQ IDs: 1-7]) were injected intra-peritoneal half an hour after heparanase or LPS. After 4 hours blood was obtained via sub-mandibular plexus puncture followed by mice sacrificing. Levels of thrombin-antithrombin (TAT), D-Dimer and IL-6 were tested using ELISA. Western blot to plasma factor VII and immunostaining of fibrinogen in lung, kidney and spleen were performed.

[3] = LPS+heparanase compared to LPS alone, 4 hours
[4] = heparanase half an hour following LPS

B1: heparanase: single chain GS3 active heparanase, comprised of the 8 kDa and 50 kDa heparanase heterodimer (8+50), recombinant human (protein, listed as Homo sapiens)
chain 1: DPAQDVVDLDFFTQEPLHLVSPSFLSVTIDANLATDPRFLILLGSPKLRTLARGLSPAYLRFGGTKTDFLIFDPKKE
chain 2: DPGKKFKNSTYSRSSVDVLYTFANCSGLDLIFGLNALLRTADLQWNSSNAQLLLDYCSSKGYNISWELGNEPNSFLKKADIFINGSQLGEDFIQLHKLLRKSTFKNAKLYGPDVGQPRRKTAKMLKSFLKAGGEVIDSVTWHHYYLNGRTATREDFLNPDVLDIFISSVQKVFQVVESTRPGKKVWLGETSSAYGGGAPLLSDTFAAGFMWLDKLGLSARMGIEVVMRQVFFGAGNYHLVDENFDPLPDYWLSLLFKKLVGTKVLMASVQGSKRRKLRVYLHCTNTDNPRYKEGDLTLYAINLHNVTKYLRLPYPFSNKQVDKYLLRPLGPHGLLSKSVQLNGLTLKMVDDQTLPPLMEKPLRPGSSLGLPAFSYSFFVIRNAKVAACI
modifications: single-chain GS3 linker
- increase in coagulation activity (factor Xa levels) in plasma [1]: 7- to 8 fold
- D-dimer level [2, 3]: reduced levels
- IL-6 level [2, 3]: further augmented IL-6 level compared to LPS alone
- TAT level [2, 3]: reduced levels
- blood leak from puncture [2, 4]: profuse blood leak from puncture
- factor VII by western blot [2, 4]: reduced levels
- fibrinogen by immunostaining [2, 4]: reduced levels
- levels of IL-1 [2, 4]: maximal levels of IL-1
